Results taken from article PMC11587651, “Increased cytoplasmic expression of PETase enzymes in E. coli” (Microbial Cell Factories, 2024).

Substrate: CC(=O)Oc1ccc([N+](=O)[O-])cc1
Assay: purified protein
Type: biochemical, Pseudideonella sakaiensis
Settings: 100 mM potassium phosphate pH 7, 25 °C, 1-20 mM 4-NPA, acetonitrile from substrate stock

B1: IsPETase (Pseudideonella sakaiensis; D186H/K252M/K95N/M154G/N212K/N233C/N241C/P181V/Q119K/Q182M/R224L/R280A/R90T/S121E/S207R/S213E/S214Y/S282C/S58A/S61V/T270Q) (protein)
chain: AQTNPYARGPNPTAASLEASAGPFTVRSFTVARPVGYGAGTVYYPTNAGGTVGAIAIVPGYTATQSSINWWGPRLASHGFVVITIDTNSTLDKPESRSSQQMAALRQVASLNGTSSSPIYGKVDTARGGVMGWSMGGGGSLISAANNPSLKAAAVMAPWHSSTNFSSVTVPTLIFACENDRIAPVKEYALPIYDSMSLNAKQFLEICGGSHSCACSGNSNQALIGMKGVAWMKRFMDNDTRYSQFACENPNSTAVCDFRTANCS
notes: expressed in E. coli SHuffle T7 Express; IMAC purified; monomeric by SEC
Hot-PETase
  Km: 9.61 ± 0.91 mM
  kcat: 33.0 ± 1.5 s⁻¹

B2: IsPETase (Pseudideonella sakaiensis) (protein)
chain: AQTNPYARGPNPTAASLEASAGPFTVRSFTVSRPSGYGAGTVYYPTNAGGTVGAIAIVPGYTARQSSIKWWGPRLASHGFVVITIDTNSTLDQPSSRSSQQMAALRQVASLNGTSSSPIYGKVDTARMGVMGWSMGGGGSLISAANNPSLKAAAPQAPWDSSTNFSSVTVPTLIFACENDSIAPVNSSALPIYDSMSRNAKQFLEINGGSHSCANSGNSNQALIGKKGVAWMKRFMDNDTRYSTFACENPNSTRVSDFRTANCS
notes: as for B1
  Km: 8.16 ± 0.66 mM
  kcat: 30.3 ± 1.1 s⁻¹

B3: IsPETase (Pseudideonella sakaiensis; D186H/N233K/R224Q/R280A/S121E) (protein)
chain: AQTNPYARGPNPTAASLEASAGPFTVRSFTVSRPSGYGAGTVYYPTNAGGTVGAIAIVPGYTARQSSIKWWGPRLASHGFVVITIDTNSTLDQPESRSSQQMAALRQVASLNGTSSSPIYGKVDTARMGVMGWSMGGGGSLISAANNPSLKAAAPQAPWHSSTNFSSVTVPTLIFACENDSIAPVNSSALPIYDSMSQNAKQFLEIKGGSHSCANSGNSNQALIGKKGVAWMKRFMDNDTRYSTFACENPNSTAVSDFRTANCS
notes: as for B1
FAST-PETase
  Km: 11.33 ± 1.11 mM
  kcat: 45.7 ± 2.3 s⁻¹
